Results: article PMC4530019

Molecular target: cardiac ryanodine receptor (RyR2) (rat (endogenous in ventricular myocytes)) (UniProt B0LPN4)
UniProt B0LPN4, sequence (B0LPN4 whole entry): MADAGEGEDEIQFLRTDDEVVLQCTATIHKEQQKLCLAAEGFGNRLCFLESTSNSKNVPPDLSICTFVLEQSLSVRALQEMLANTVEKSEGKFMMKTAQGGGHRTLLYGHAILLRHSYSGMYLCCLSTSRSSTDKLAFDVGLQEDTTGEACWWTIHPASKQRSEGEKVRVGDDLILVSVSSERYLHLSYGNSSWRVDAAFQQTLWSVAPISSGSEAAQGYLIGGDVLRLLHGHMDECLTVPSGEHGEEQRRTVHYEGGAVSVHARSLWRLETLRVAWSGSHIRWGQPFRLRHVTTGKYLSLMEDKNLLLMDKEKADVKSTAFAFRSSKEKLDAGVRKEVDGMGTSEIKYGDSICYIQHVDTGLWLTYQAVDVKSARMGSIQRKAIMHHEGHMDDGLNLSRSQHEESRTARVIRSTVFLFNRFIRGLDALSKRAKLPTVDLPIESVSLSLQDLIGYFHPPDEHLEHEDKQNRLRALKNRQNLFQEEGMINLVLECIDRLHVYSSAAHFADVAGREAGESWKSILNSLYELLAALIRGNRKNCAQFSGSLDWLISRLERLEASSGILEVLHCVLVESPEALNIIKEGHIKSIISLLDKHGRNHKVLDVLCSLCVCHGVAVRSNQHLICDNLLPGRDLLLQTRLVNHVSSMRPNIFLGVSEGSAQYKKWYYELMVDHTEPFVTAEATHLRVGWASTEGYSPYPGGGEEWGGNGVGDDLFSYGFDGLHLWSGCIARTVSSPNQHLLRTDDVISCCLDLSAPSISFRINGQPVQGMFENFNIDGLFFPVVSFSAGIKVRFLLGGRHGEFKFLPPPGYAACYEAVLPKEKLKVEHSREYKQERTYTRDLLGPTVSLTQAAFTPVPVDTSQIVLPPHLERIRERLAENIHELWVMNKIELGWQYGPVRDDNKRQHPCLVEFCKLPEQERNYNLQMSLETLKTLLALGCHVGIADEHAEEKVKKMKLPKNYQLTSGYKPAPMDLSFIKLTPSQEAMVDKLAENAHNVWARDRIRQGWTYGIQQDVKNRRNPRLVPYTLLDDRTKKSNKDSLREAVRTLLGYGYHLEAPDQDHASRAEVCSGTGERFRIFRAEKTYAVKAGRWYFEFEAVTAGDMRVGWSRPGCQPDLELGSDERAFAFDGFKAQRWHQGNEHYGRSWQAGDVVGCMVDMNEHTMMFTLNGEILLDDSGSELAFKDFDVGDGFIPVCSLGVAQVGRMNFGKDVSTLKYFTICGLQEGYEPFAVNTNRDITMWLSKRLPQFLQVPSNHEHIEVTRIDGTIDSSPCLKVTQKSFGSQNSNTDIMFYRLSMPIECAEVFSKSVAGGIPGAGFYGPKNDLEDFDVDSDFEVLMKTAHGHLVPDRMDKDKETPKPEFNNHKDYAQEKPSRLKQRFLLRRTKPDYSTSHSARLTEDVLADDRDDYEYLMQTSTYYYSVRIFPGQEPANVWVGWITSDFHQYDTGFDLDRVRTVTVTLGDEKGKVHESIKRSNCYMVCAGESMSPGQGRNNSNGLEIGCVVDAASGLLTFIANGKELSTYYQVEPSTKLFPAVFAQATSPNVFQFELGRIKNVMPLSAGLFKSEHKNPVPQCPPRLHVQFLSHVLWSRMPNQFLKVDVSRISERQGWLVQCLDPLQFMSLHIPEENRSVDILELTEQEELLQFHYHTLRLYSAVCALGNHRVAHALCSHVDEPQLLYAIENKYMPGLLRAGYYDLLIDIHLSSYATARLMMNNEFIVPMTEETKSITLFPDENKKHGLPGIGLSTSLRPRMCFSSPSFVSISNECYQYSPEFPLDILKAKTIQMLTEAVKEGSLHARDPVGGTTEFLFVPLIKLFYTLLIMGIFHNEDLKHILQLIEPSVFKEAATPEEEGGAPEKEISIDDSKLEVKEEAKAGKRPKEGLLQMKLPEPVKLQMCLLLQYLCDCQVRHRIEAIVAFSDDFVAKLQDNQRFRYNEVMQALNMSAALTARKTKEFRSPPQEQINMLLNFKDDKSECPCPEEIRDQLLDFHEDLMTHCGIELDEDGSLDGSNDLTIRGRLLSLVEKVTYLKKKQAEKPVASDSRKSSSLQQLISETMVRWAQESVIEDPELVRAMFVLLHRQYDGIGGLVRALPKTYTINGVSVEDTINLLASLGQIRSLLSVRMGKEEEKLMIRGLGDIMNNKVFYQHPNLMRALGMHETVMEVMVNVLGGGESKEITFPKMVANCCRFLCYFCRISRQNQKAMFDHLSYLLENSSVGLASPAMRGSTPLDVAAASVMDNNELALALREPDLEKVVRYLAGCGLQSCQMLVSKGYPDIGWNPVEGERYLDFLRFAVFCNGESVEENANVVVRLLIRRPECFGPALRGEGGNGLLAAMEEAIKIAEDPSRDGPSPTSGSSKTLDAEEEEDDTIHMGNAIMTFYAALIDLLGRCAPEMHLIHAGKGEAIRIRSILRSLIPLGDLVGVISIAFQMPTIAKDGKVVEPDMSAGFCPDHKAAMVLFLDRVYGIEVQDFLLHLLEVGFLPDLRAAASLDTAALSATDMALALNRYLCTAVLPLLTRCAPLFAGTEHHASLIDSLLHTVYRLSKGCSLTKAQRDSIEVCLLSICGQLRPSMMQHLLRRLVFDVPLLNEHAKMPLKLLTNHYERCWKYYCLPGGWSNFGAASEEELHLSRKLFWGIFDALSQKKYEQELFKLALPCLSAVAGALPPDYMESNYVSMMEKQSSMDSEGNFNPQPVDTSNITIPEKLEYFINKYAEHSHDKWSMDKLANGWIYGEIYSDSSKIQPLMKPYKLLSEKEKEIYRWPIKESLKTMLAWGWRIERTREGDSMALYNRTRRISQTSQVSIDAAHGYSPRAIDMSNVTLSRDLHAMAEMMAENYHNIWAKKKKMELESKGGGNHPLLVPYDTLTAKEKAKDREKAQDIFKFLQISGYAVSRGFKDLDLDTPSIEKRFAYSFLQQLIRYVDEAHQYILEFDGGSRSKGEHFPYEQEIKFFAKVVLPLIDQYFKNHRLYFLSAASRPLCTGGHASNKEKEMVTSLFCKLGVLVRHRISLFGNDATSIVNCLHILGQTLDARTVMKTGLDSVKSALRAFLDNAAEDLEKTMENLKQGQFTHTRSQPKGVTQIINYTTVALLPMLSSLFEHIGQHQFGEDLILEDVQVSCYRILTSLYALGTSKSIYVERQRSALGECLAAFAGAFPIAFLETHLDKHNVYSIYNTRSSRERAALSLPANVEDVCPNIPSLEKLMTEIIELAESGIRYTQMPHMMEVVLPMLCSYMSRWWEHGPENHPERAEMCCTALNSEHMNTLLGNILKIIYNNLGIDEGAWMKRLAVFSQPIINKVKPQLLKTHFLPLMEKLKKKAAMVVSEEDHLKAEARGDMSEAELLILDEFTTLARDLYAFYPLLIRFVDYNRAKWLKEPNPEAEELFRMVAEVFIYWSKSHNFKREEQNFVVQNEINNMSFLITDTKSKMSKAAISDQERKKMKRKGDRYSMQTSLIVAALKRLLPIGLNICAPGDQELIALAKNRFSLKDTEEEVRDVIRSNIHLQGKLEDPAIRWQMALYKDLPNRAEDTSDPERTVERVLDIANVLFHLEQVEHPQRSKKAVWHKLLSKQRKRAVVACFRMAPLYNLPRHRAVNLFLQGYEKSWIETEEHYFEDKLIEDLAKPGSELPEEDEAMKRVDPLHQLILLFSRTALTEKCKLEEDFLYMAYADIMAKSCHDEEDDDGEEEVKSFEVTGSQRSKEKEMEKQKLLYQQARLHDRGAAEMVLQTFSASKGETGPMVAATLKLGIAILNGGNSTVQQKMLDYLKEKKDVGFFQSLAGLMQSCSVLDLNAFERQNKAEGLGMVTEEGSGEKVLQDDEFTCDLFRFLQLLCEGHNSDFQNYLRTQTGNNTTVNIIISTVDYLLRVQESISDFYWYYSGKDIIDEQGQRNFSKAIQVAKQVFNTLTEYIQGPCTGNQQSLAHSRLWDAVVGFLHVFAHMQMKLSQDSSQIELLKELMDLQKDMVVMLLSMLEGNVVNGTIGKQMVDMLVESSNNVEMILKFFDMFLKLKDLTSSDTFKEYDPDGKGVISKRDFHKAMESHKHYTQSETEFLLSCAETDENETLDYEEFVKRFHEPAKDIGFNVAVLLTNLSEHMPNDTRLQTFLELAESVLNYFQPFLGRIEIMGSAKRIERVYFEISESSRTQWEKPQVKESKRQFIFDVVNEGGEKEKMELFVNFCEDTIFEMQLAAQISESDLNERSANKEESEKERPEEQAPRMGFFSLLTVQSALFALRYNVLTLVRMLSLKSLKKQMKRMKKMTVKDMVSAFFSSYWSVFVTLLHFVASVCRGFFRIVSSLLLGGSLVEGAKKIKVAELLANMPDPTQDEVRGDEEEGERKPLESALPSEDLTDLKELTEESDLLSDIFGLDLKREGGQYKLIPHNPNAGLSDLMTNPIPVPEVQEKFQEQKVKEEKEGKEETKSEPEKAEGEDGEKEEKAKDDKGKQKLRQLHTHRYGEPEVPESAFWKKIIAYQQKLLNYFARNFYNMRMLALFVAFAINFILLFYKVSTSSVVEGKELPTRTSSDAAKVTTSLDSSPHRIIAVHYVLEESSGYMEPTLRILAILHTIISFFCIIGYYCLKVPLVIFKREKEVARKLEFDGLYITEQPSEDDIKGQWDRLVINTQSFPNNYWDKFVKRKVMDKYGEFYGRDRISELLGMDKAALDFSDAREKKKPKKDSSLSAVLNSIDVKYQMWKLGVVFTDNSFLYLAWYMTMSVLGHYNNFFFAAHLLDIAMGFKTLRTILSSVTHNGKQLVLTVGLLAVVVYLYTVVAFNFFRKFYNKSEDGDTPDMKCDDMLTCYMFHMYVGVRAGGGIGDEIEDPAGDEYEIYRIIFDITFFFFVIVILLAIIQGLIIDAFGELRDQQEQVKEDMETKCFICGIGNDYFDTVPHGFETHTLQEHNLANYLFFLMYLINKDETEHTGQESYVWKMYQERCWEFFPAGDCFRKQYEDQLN

percent reduction of specific Z-line binding against F-CaM that was not oxidized: 20%
Substance: F-CaM pre-incubated in H2O2 (F-CaM^Ox) (from UniProt P0DP23 1-149) (natural protein)
